From paper PMC11293870

Biological target: T1, LKB1-3xFlag (pcDNA3.1-LKB1-3xFlag) (human) (UniProt Q15831)
T1 sequence: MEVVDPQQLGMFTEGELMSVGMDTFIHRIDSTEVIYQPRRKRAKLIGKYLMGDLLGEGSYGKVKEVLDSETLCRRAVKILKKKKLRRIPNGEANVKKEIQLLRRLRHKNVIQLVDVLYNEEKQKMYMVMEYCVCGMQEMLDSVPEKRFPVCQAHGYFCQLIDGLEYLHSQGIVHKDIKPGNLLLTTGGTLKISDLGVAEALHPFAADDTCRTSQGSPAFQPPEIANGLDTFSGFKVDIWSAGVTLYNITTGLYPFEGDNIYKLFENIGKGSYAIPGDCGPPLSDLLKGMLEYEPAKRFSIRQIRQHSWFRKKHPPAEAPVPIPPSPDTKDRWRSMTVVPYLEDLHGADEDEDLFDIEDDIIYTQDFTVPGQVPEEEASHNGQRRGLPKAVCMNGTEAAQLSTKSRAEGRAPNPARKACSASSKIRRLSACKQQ

- STRADα KinCon reporter bioluminescence (intramolecular RLuc PCA, closing of the conformation) on co-expression of LKB1 and MO25; HEK293T, 48 hr of expression (also HeLa and SW480): > 10 fold
B1: STRADα-KinCon (pcDNA3.1-F[1]-STRADα-F[2]) (natural protein)
chain: MSFLVSKPERIRRWVSEKFIVEGLRDLELFGEQPPGDTRRKTNDASSESIASFSKQEVMSSFLPEGGCYELLTVIGKGFEDLMTVNLARYKPTGEYVTVRRINLEACSNEMVTFLQGELHVSKLFNHPNIVPYRATFIADNELWVVTSFMAYGSAKDLICTHFMDGMNELAIAYILQGVLKALDYIHHMGYVHRSVKASHILISVDGKVYLSGLRSNLSMISHGQRQRVVHDFPKYSVKVLPWLSPEVLQQNLQGYDAKSDIYSVGITACELANGHVPFKDMPATQMLLEKLNGTVPCLLDTSTIPAEELTMSPSRSVANSGLSDSLTTSTPRPSNGDSPSHPYHRTFSPHFHHFVEQCLQRNPDARPSASTLLNHSFFKQIKRRASEALPELLRPVTPITNFEGSQSQDHSGIFGLVTNLEELEVDDWEF
